Reference: patent US9387267B2, “Iodine-containing radial-shaped macromolecular compounds, preparation method thereof and contrast media compositions for CT comprising the same” (KOREA RESEARCH INSTITUTE OF BIOSCIENCE AND BIOTECHNOLOGY, priority 2010, dated 2016)
Where two headings read alike, the source gives them in different places.

Experiments:
[1] = test system: Human epithelial cervical cancer (HeLa) cell line; format: cell-based; details: HeLa cells
Protocol: Human epithelial cervical cancer (HeLa) cell line was obtained from American Type Culture Collection (ATCC, Manassas, Va.) and maintained at 37° C. under a 5% carbon dioxide (CO2) atmosphere in Dulbecco's modified eagle medium (DMEM, Gibco) supplemented with 10% fetal bovine serum (FBS), 50 U/mL penicillin, and 50 μg/mL streptomycin. Stock solutions of PAMAM-PEG2000-TIPAA conjugate Compounds 1c-4c were prepared by dissolving 10 mg of each vacuum-dried solid sample in 1.0 mL of deionized water (Millipore Milli-Q) to make a 10 mg/mL solution. Each stock solution was sonicated briefly to ensure homogeneity. Serial dilutions were carried out using serum-free DMEM to prepare samples of the following concentrations: 1, 5, 10, 50, 100, and 500 μg/mL. HeLa cells were seeded in a flat bottomed 96-well plate (Corning Costar, Cambridge, Mass.) at a density of 1×10^3 cells per well and incubated for 24 hours at 37° C. under a 5% CO2 atmosphere to allow cell attachment. Cells were treated with 100 μL of each dilution or 100 μL of serum-free DMEM (as a control) per well and incubated at 37° C. under a 5% CO2 atmosphere for 24, 48, or 72 hours. The formulations were replaced with serum-free DMEM containing 5 mg/mL 3-(4,5-dimethylthiazol-2-yl)-2,5-diphenyltetrazolium bromide (MTT) and cells were incubated for additional 4 hours. MTT was removed by aspiration and DMSO (100 μL) was added to each well to dissolve the formazan crystals [Mosmann, T., J. Immunol. Methods 1983, 65, 55-63]. Assays were carried out in quadruplicates.

[2] = format: physicochemical
Protocol: (§1) Sample solutions for in vivo injections as CT contrast agents were prepared by dissolving each PAMAM-PEG2000-TIPAA conjugate (Compound 1c, 2c, 3c, or 4c) at 250 mg/mL in the sterilized 20 mM Tris buffer (242 mg tromethamine and 10 mg EDTA dissolved in 100 mL of deionized water (Millipore Milli-Q), pH 7.4). The resulting solution was sonicated briefly to ensure homogeneity and stored at 4° C., if not used immediately. Before the injection to the animal, the contrast agent solutions were removed from the fridge, warmed to room temperature, and agitated by vortex.
The results of the viscosity (30° C.) and osmolality measurements of the CT contrast media solutions of the present invention are summarized in the following Table 1.
In Table 1, the values are presented as the mean±standard deviation. Five independent measurements were made for each compound under the same conditions, and the mean and standard deviation were calculated after excluding the highest and lowest values (i.e., 3 data).

[3] = Micro-CT 2D X-ray snapshot imaging of contrast media solutions in tubes
Protocol: Prior to the in vivo injection of CT contrast media (250 mg/mL) including Compounds 1c, 2c, 3c, or 4c of Examples 1 to 4 prepared in the Preparation Step, 2D X-ray snapshot images of these solutions and two commercially available CT contrast media each for human or animal application were obtained using micro-CT to compare their relative X-ray absorption in tubes under the same conditions as a preliminary evaluation.
Overall, eight 250 μL-tubes were prepared each containing the following: 250 μL each of four CT contrast media prepared in the Preparation Step, 250 μL of “Fenestra VC”, 250 μL of “Iobrix”, 250 μL of 20 mM Tris buffer solution (pH 7.4, 0.1 mg/mL EDTA included) as a negative control group, and one empty tube as a negative control group. These eight tubes were then arranged side by side in parallel on the imaging bed of a NFR Polaris-G90 in vivo micro-CT scanner (manufacturer: NanoFocusRay), and 2D X-ray snapshot images were taken [imaging parameters: 60 kVp, 60 μA, 500 ms exposure time, field of view (FOV) 80.00×83.71 mm^2, 1.4× magnification].

C57BL/6 mice = experiment: In vivo micro-CT imaging evaluation
Protocol: Specifically, 6 to 8 weeks old healthy male C57BL/6 mice (Orient Bio, Korea) having the weight typically ranging from 15 g to 22 g were used as small animals. Each mouse was not fed water and food starting from approximately 12 hours before the injection of the contrast medium until the completion of CT imaging at 4 hours post-injection. The mice were fed water and food immediately after the completion of CT imaging at 4 hours post-injection. Before the injection of the contrast media, each mouse was anaesthetized in an induction chamber by administering 3% isoflurane in oxygen for about 5 minutes. Subsequently, the mouse was placed onto the imaging bed of a NFR Polaris-G90 in vivo micro-CT scanner (NanoFocusRay, Korea) lying in a prone position, and then the baseline (i.e., pre-contrast) scan was performed as a negative control group while being anesthesized by administering 1.5% isoflurane in oxygen [imaging parameters: 60 kVp, 60 μA, 500 ms exposure time, 360° scan angle, 600 scan number, 512 slices (i.e., image number); FOV: 80.00×83.71 mm^2 for low resolution whole-body imaging (1.4× magnification), 33.94×35.52 mm^2 for mid resolution chest and abdominal imaging (3.3× magnification), and 26.67×27.90 mm^2 for high resolution brain imaging (4.2× magnification)]. Next, the tail vein of the mouse was expanded by immersing the tail in a warm water for about 30 to 60 seconds while maintaining the mouse under anesthesia by administering 1.5% isoflurane in oxygen, and the corresponding amount of each contrast medium (15 mL/kg for the contrast media including the compounds of Examples 1 to 4, 10 mL/kg for “Fenestra VC”, and 2.5 mL/kg for “Iobrix”) was slowly injected into the tail vein of each mouse. Immediately after the injection of the contrast medium, the mouse was placed onto the imaging bed of a micro-CT scanner lying in a prone position, and the CT scan was performed at the corresponding resolution (low, mid, or high) while being anesthesized by administering 1.5% isoflurane in oxygen. […]

[4] = Dissolving the compound in buffer solution for a contrast medium; format: physicochemical; details: concentration appropriate for CT imaging
Protocol: as §1

[5] = incubated for 72 hours, 500 μg/mL, MTT
[6] = 250 mg/mL in 20 mM Tris buffer pH 7.4, mean±standard deviation
[7] = 30° C., 250 mg/mL in 20 mM Tris buffer pH 7.4, mean±standard deviation
[8] = 250 μL in tube, 2D X-ray snapshot, 60 kVp, 60 μA, own media 250 mg/mL

Substance	cell survival rate [1, 5]	Osmolality [2, 6]	Viscosity [2, 7]	X-ray transmission intensity [3, 8]	amount found in the kidney (C57BL/6 mice; mice, images at 1 hour after injection)	excretion (route and rate) (C57BL/6 mice; mice, tail vein injection, whole-body CT images)	cell survival rate ([1]; human, 72 h, 500 µg/mL)	Osmolality ([2]; pH 7.4)	Viscosity ([2]; pH 7.4)	X-ray transmission intensity [3]	ease of dissolving in a buffer solution [4]	thickness of contrast medium solution felt during the injection (C57BL/6 mice; during injection)
G1 PAMAM-mPEG2000-TIPAA Conjugate [Example 1]	88.5%	464.75 ± 3.59 mOsm/kg	15.32 ± 0.39 mPa · s	904.5	a considerable amount thereof was found in the kidney within a relatively short period of time	mostly through kidney to bladder						
G2 PAMAM-mPEG2000-TIPAA Conjugate [Example 2]							88.4%	233.50 ± 9.75 mOsm/kg	16.47 ± 0.80 mPa · s	838.0		
G3 PAMAM-mPEG2000-TIPAA Conjugate [Example 3]							88.4%	225.75 ± 1.26 mOsm/kg	16.15 ± 0.53 mPa · s	826.5		
G4 PAMAM-mPEG2000-TIPAA Conjugate [Example 4]	87.9%	242.00 ± 4.08 mOsm/kg	16.31 ± 0.61 mPa · s	827.0							more difficult to dissolve	felt thicker than Compound 2c of Example 2 or Compound 3c of Example 3
